Assay results from patent US20210130491A1 (ONCOTAG DIAGNOSTICS, published 2021).

Tests used:
Assay in all cases: ELISA, protein coated at 1 ug/ml
His-CRS = target: T1, His-CRS (UniProt P49589 1-748)
T1 construct: not shown: His tag
T1 sequence (looked up): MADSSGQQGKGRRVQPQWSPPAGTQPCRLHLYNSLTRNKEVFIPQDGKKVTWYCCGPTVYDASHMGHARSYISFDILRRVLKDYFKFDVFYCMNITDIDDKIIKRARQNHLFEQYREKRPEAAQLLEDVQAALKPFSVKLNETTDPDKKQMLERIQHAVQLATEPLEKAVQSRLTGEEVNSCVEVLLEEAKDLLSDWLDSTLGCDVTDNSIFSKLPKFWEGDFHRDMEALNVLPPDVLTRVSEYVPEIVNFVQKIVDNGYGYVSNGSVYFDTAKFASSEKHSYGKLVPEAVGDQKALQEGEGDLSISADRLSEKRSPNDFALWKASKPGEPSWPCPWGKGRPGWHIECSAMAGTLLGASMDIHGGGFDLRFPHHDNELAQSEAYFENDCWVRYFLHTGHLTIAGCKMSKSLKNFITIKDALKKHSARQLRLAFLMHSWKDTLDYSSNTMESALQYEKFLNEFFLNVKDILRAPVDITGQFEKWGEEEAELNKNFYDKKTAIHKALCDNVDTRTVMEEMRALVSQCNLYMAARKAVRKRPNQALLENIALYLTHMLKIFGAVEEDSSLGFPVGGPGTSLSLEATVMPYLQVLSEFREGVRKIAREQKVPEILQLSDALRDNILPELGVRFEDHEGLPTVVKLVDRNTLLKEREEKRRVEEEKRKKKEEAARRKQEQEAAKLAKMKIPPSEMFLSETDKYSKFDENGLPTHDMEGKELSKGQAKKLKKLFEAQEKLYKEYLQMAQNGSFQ
Experimental: (§1) Each well of 96 well plates (Corning 3690 flat bottom, 96-well half-area plates) was coated with different kinds of ARS proteins (His-MRS, MRS full, DX2 tag free, 34S-DX2, 34S-AIMP2, His-CRS, His-AIMP1, His-GRS, His-WRS, His-KRS) at the concentration of 1 μg/ml. 1E8 and 8A12 antibodies at a concentration of 500 ng/ml were added onto the 96 well plates coated with ARS proteins and allowed to react for 1 hour. Thereafter, HRP-conjugated anti-mouse IgG secondary antibody was added and reacted for 1 hour. ELISA was performed and absorbance was measured at 450 nm. TMB (3,3′,5,5′-tetramethylbenzidine) was used as substrate.

His-AIMP1 = target: T2, His-AIMP1 (UniProt Q12904 1-312, limits assumed)
T2 construct: not shown: His tag
T2 sequence (looked up): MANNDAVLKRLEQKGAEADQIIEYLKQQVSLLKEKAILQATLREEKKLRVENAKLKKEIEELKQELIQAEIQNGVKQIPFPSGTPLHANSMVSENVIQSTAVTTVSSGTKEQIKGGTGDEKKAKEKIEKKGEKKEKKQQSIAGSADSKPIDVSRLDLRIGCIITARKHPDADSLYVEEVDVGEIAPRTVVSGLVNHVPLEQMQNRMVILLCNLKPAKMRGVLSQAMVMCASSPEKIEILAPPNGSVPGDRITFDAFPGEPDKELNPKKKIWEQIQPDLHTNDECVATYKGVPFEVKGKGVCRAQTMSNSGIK
Experimental: as §1

His-GRS = target: T3, His-GRS (UniProt P41250 55-739)
T3 construct: not shown: His tag
T3 sequence (looked up): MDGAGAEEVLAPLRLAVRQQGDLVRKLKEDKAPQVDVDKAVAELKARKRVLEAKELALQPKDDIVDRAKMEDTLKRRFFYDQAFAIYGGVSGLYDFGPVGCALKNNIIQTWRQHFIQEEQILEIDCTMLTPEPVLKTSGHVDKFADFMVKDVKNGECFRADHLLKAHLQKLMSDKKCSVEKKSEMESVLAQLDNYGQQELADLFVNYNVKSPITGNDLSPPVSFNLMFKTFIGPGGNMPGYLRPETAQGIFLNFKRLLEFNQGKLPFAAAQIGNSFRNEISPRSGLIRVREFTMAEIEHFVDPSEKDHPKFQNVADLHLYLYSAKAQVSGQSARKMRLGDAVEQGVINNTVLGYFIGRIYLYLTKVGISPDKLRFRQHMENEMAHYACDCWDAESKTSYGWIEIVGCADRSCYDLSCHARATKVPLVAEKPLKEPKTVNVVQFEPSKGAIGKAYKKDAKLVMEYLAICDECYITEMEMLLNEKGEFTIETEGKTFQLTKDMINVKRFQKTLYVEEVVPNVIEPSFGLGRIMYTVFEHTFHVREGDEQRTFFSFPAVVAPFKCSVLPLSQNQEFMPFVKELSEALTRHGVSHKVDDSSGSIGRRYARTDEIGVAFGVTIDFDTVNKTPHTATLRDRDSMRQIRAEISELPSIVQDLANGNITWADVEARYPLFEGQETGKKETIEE
Experimental: as §1

His-WRS = target: T4, His-WRS (UniProt P23381 1-471, limits assumed)
T4 construct: not shown: His tag
T4 sequence (looked up): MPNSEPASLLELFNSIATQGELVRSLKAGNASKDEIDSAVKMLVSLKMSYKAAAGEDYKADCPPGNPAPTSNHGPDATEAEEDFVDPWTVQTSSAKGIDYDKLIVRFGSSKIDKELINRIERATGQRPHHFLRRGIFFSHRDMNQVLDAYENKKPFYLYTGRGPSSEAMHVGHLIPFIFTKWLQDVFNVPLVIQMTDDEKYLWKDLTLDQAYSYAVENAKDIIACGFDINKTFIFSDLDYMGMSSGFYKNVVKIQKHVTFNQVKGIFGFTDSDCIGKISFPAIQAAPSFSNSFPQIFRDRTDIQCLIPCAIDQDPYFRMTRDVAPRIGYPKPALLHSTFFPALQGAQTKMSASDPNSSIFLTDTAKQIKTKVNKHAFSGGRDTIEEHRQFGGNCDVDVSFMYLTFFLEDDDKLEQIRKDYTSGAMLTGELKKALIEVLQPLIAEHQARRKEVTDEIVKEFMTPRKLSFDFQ
Experimental: as §1

His-KRS = target: T5, His-KRS (UniProt Q15046 1-597)
T5 construct: not shown: His tag
Experimental: as §1

34S-AIMP2 = target: T6, 34S-AIMP2 (UniProt Q13155 1-320)
T6 construct: not shown: '34S' tag or fusion partner
T6 sequence (looked up): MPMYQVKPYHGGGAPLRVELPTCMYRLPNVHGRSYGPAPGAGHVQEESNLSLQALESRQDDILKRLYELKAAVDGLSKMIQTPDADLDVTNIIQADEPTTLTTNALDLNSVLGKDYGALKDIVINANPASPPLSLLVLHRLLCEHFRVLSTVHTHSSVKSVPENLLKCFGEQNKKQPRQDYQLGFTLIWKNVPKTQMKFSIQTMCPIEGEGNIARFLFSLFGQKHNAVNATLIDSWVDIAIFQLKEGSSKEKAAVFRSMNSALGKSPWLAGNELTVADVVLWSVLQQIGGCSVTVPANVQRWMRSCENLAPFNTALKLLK
Experimental: as §1

Measured: binding result

T5 sequence (Q15046 whole entry): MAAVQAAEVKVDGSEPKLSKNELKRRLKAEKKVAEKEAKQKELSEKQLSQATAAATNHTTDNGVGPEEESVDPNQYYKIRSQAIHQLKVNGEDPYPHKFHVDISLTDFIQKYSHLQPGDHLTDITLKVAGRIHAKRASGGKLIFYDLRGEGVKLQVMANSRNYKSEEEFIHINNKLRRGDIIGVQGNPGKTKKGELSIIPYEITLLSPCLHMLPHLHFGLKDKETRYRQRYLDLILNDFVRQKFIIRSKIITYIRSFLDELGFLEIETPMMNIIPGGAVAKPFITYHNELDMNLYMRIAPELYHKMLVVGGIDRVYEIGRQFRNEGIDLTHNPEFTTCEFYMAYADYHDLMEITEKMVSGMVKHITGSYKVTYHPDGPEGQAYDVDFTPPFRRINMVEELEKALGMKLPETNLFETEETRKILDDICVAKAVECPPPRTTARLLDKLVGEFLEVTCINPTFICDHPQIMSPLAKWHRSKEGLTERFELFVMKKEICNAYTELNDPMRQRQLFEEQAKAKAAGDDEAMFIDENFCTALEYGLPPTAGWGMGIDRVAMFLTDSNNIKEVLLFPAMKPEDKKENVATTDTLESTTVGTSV

B1: 1E8 antibody (1E8 IgG) (antibody, V domains shown)
VH: DVKLQESGPGLVNPSQSLSLTCTVTGYSITSDYAWNWIRQFPGNKLEWMGYISYSGRTSYKSSLKSRISITRDTSKNQFFLELNSVTTEDTATYYCARDYGNFVGYFDVWGAGTTVTVSS
VL: DIVMTQSPSSLAVSVGEKVTMSCKSSQSLLYSSNQKNYLAWYQQKPGQSPKLLIYWASTRESGVPDRFTGSGSGTEFTLTISSVKAEDLAVYYCQQYYSYPTFGGGTKLEIKA
notes: Mouse monoclonal from hybridoma clone 1E8; also called IE8; anti-MRS antibody (1E8)
no binding (tested: 500 ng/ml): all assays above

B2: 8A12 antibody (8A12 IgG) (antibody, V domains shown)
VH: DVKLQESGPGLVKPSQSLSLTCTVTGYSITSEYAWTWIRQFPGNKLEWMGYINYNGNTNLNPSLKSRISIIRDTSKNQFFLQLNSVTTEDTATYYCARSLWPRGWFAYWGQGTLVTVSA
VL: DIQMTQSPSSMYASLGERVTITCKASQDINSYLSWFQQKPGKSPKTLMYRANRLVDGVPSRFSGSGSGQDYSLTISSLEYEDMGIYYCLQYDEFPRTFGGGTKLEIKA
notes: Mouse monoclonal from hybridoma clone 8A12; also called 8Al2; anti-MRS antibody (8A12)
no binding (tested: 500 ng/ml): all assays above
